Source: patent publication US20250282887A1 (Amgen, published 2025)

T1: human MAGEA9 (human, UniProt P43362 1-315)
T1 construct: whole, on cells; FFPE cell pellets
T1 sequence (looked up): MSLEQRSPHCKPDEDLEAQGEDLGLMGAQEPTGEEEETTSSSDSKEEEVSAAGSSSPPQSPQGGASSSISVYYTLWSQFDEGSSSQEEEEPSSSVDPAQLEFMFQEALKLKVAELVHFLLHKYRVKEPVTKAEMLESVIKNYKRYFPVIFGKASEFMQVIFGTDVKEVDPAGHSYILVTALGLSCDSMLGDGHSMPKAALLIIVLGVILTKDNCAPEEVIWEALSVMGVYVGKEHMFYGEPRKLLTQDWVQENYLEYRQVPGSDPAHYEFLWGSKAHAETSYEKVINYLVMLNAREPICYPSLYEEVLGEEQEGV

T2: human MAGEB4 (human, UniProt O15481 1-346)
T2 construct: whole, on cells
T2 sequence (looked up): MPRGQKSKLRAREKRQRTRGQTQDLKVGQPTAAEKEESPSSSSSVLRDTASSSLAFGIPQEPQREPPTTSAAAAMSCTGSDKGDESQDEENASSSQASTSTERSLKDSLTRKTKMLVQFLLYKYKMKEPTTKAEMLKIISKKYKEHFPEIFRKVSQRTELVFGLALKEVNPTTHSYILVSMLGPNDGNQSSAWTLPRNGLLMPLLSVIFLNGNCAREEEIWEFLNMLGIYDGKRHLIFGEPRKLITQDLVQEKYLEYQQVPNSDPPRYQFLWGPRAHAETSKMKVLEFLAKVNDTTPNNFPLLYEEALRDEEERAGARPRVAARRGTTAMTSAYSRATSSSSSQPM


Legend:
human MAGEA9 = target: T1, human MAGEA9; assay: IHC, FFPE CHO cells transfected with human MAGEA9
Description: (§1) FFPE samples were sectioned at 4 μm and mounted on positive charged glass slides. After mounting, paraffin sections were air-dried at room temperature. FFPE TMA samples were received as freshly sectioned and mounted on glass slides. The fully automated IHC assay was performed on a Discovery Ultra Stainer (Ventana Medical Systems, Tucson, AZ) using Ventana Anti-Rabbit HQ (cat #760-4815), Ventana Anti-HQ HRP (cat #760-4820), and Ventana Antibody Diluent with Casein (cat #760-219) (Ventana Medical Systems, Tucson, AZ). The slides were baked on the Discovery Ultra Stainer at 60° C. for 8 minutes, de-paraffinized with Ventana Discovery wash (cat #950-510) for 3 cycles (8 minutes each) at 69° C., and underwent cell conditioning (target retrieval) at 95° C. for 16 minutes (for cell arrays) or 32 minutes (tissues or TMAs) in CC1 buffer (cat #950-500). Following this, slides were incubated with Background Sniper (cat #BS966M, Biocare Medical, Pacheco, CA) in a Ventana Option Prep kit (cat #771-751) for 28 minutes, incubated with CM inhibitor (a part of the Ventana DAB kit cat #760-159) for 12 minutes, and incubated for 1 h at RT with MAGE-B2 antibody diluted with Ventana diluent with Casein in a Ventana Prep kit (cat #770-001) (working concentration at 0.1 μg/ml for cell pellet, or 1-5 ug/ml for tissues) or with a matched concentration of isotype control Rabbit IgG1 antibody. Following this, slides were incubated with the Ventana Anti-Rabbit HQ (cat #760-4815) for 28 minutes at RT, Ventana Anti-HQ HRP (cat #760-4820) for 28 minutes at RT, and signals detected with Ventana DAB chromogen kit (cat #760-159) for 5 minutes at RT. Slides were counterstained with Ventana Hematoxylin II (cat #5266726001) for 8 minutes and Ventana Bluing reagent (cat #526676900) for 4 minutes. Slides were coverslipped and digitized using an Aperio AT2 scanner (Leica Biosystems Inc, Buffalo Grove, IL).

human MAGEB4 = target: T2, human MAGEB4; assay: IHC, FFPE CHO cells transfected with human MAGEB4
Text: Negative control cells included parental Chinese hamster ovary (CHO) cells, CHO cells stably transfected with mCherry Vector Control (minus Myc/DDK tags), CHO cells stably transfected with mCherry-human DCAF4L2 (plus Myc/DDK tags). The cross-reactivity control cells included CHO cells transfected with mCherry Vector Control (plus Myc/DDK tags) with one of the human MAGE-B or MAGE-A family members (MAGEA1, MAGEA2, MAGEA3, MAGEA4, MAGEA5, MAGEA6, MAGEA8, MAGEA9, MAGEA11, MAGEA12, MAGEB1, MAGEB3, MAGEB4, MAGEB5, MAGEB6, MAGEB10, MAGEB16, MAGEB17, MAGEB18). Positive control cell lines included CHO cells transfected with mCherry Vector (plus Myc/DDK tags) with human MAGE-B2 or CHO cells transfected with mCherry Vector (open reading frame (ORF); minus Myc/DDK tags) with human MAGEB2, and thirteen human cancer cell lines with known endogenous RNA expression level of MAGEB2 (U266B1, T98G, KMM-1, U20S, CFPAC-1, SCaBER, UACC-257, CFPAC-1, VMRC-LCD, NCI-H1703, UM-UC-3, NCI-H1395, NCIH82).
as §1, with “antibody.” for “antibody. Following this, slides were incubated with the Ventana Anti-Rabbit HQ (cat #760-4815) for 28 minutes at RT, Ventana Anti-HQ HRP (cat #760-4820) for 28 minutes at RT, and signals detected with Ventana DAB chromogen kit (cat #760-159) for 5 minutes at RT. Slides were counterstained with Ventana Hematoxylin II (cat #5266726001) for 8 minutes and Ventana Bluing reagent (cat #526676900) for 4 minutes. Slides were coverslipped and digitized using an Aperio AT2 scanner (Leica Biosystems Inc, Buffalo Grove, IL).”

| binding result (human MAGEA9) | binding result (human MAGEB4) | Binder |
| --- | --- | --- |
| no binding (tested: 0.1 µg/ml) | no binding (tested: 0.1 µg/ml) | 1I14 (antibody, V domains shown, also called MAGE-B2 (1i14)) VH: QSVEESGGRLVTPGTPLTLTCTISGFSLSSYAMSWVRQAPGKGLEWIGSIGGGGSAVYASWAKGRFTISKTSTTVDLRITSPTTEDTAMYFCGRGFYSIDLWGPGTLVTVSS VL: DVVMTQTPASVEATVGGTVTIKCQSSQSVYDNNALAWYQQNAGQRPRLLIYGASTLASGVPSRFSASGSGTEFTLTISDLECADAATYYCQCTYYVSSYQNDFGGGTEVVVKG |
| no binding (tested: 0.1 µg/ml) | no binding (tested: 0.1 µg/ml) | 1C3 (antibody, V domains shown, also called MAGE-B2 (IC3); anti-MAGEB2 antibody 1C3) VH: QSLEESGGGLVQPEGSLTLTCTAFGVTLTNYYICWVRQAPGKGLEWVGCIDNANGRTYYASWAKGRFTISKTSSTTGTLQMTSLTAADTATYFCARSLATPLWGPGTLVTVSS VL: DIVMTQTPSSVEAAVGGTVTIKCQASQNISSYLAWYQQKPGQPPKLLIYRASTLASGVPSRFKGSGSGTQFTLTISDLECADAATYYCQSYDDSRSSNFFYAFGGGTEVVVKG |
| no binding (tested: 0.1 µg/ml) | no binding (tested: 0.1 µg/ml) | 4G17 (antibody, IgG1, V domains shown, Rabbit monoclonal IgG1; Tested as supernatant and as small batch purified antibody; also called MAGE-B2 (4G17); anti-MAGEB2 antibody 4G17) VH: QSLEESGGGLVQPEGSLTLTCTASGVTLSNYYICWVRQAPGKGLEWIGCIDNVNGRTYYASWAKGRFTISKTSSTTGTLQMTSLTAADTATYFCARSLATPLWGPGTLVTVSS VL: DIVMTQTPASVEAAVGGTVTIKCQASQNIDSYLAWYQQKPGQPPKLLIYRASTLASGVPSRFKGSGSGTEFTLTISDLECADAATYYCQSYDDSRSSSFFYGFGGGTEVVVK |
| no binding (tested: 0.1 µg/ml) | no binding (tested: 0.1 µg/ml) | 1J15 (antibody, IgG1, V domains shown, Rabbit monoclonal IgG1; Tested as supernatant and as small batch purified antibody; also called MAGE-B2 (IJ15); anti-MAGEB2 antibody 1J15) VH: QSLEESGGGLVQPEGSLTLTCTAFGFTLNNYYICWVRQAPGKGLEWIACIDNANGRTYYASWAKGRFTISKTSSTTVTLQMTSLTAADTATYFCARSLSTPLWGPGTLVTVSS VL: DIVMTQTPASVEAAVGGTVTIKCQASQSISSYLSWYQQKPGQPPKLLIYRASTLASGVPSRFRGSGSGTQFTLTISDLECADAATYYCQSYDDSSDNNFFYGFGGGTEVVVR |
